The supplement of paper PMC12042874
± gives the uncertainty stated by the source.

Assay: amyloid nucleation score (Sup35N fusion, yeast selection) (log enrichment); library NNK3; higher = more nucleation; inactive = no reads after selection
Outline: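 Output and input plasmid inserts were sequenced by Illumina after psi-negative yeast carrying Sup35N fused to peptides of 20 random codons had been induced 24 hours with 100 μM copper sulfate and grown 7 days at 30°C on medium lacking adenine and uracil. The nucleation score is the DiMSum log enrichment of output over input reads, centred on the mode score of non-aggregating sequences. Sequences with under 100 input reads were excluded.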
For WMMNIDYTNSW, the amyloid nucleation score was “inactive”.
With SFGILVYIRTAMPCTNIANY the amyloid nucleation score was “inactive”.
In the case of NQWIAICNPSPFRVLTAHI, the amyloid nucleation score is reported as “inactive”.
With HVGCLIYDIQCETPGSHPSR the amyloid nucleation score was “inactive”.
With NLVRFLLKFMVKEYLRFTYI the amyloid nucleation score was “inactive”.
In the case of IRFSCSSSG, the amyloid nucleation score is reported as “inactive”.
With MMVIRQYFMVRVEPVHVSSG the amyloid nucleation score was “inactive”.
In the case of ASLISILLALDMSMGLSLEP, the amyloid nucleation score is reported as “inactive”.
For ALKDGIFFFHA, the amyloid nucleation score was “inactive”.
In the case of SSWFNGSLTVRQLIQRGRLF, the amyloid nucleation score is reported as “inactive”.
With CFDAYIAYLSMRCWYPKNNC the amyloid nucleation score was 0.015 ± 0.71.
LFMSPVKSAWRIVCGNKFSQ showed an amyloid nucleation score of -0.642 ± 1.1.
For QRLVINDMMPLFFWHSNMGD, the amyloid nucleation score was “inactive”.
In the case of SGVWFVGRVCELHSWFINLS, the amyloid nucleation score is reported as “inactive”.
Work on GDTVLVILSILSVGCC yielded an amyloid nucleation score of 1.2 ± 0.15.
With FLGAVRLYSPAHTY the amyloid nucleation score was “inactive”.
For PTRNYCLLVKDY, the amyloid nucleation score was “inactive”.
In the case of FNMFVKNN, the amyloid nucleation score is reported as “inactive”.
For SRPLHFVYVIWGCPDQSDRN, the amyloid nucleation score was “inactive”.
In the case of SRTLTVYRVCHHIESSTNNF, the amyloid nucleation score is reported as “inactive”.
With HVMGANREPF the amyloid nucleation score was “inactive”.
In the case of FQKQLASRCTSWSWTRWLVQ, the amyloid nucleation score is reported as “inactive”.
For YPLSPRLLRTTTMHSTQGVG, the amyloid nucleation score was “inactive”.
For ATNLWR, the amyloid nucleation score was “inactive”.
For GVSILCLVLWSMWTLGGESW, the amyloid nucleation score was “inactive”.
For SDITSHLRHSNASNGSWNWL, the amyloid nucleation score was “inactive”.
NYFQFCCGLETVNNYYRKCE gave an amyloid nucleation score of 1.76 ± 0.066.
For ECYIVWFLRLCSSGVYVYLR, the amyloid nucleation score was “inactive”.
For YHVMV, the amyloid nucleation score was “inactive”.
NNRVLQRRPHRFHGANVTWS gave an amyloid nucleation score of -0.677 ± 1.4.
With RHQHKRGAV the amyloid nucleation score was -0.982 ± 1.4.
In the case of SYILRLSHFITVGLFWAEMQ, the amyloid nucleation score is reported as “inactive”.
In the case of ILTLTSRPLLLNLKKPFWVF, the amyloid nucleation score is reported as “inactive”.
In the case of SNIDCLFNNVLCWIVFEWC, the amyloid nucleation score is reported as 1.07 ± 0.11.
For QGYLRKYPVTGICVIYECDG, the amyloid nucleation score was “inactive”.
For DLSKTGTSNNLLFTERISDI, the amyloid nucleation score was “inactive”.
With AMLLCTYFRKAVYLNAK the amyloid nucleation score was “inactive”.
For DVQCGVIMRGLDKYFDLNSA, the amyloid nucleation score was “inactive”.
CNVFWVPTVRLIFKMYKVSR gave an amyloid nucleation score of 0.417 ± 0.36.
With TQSFWIARYTQLVCPRLCQN the amyloid nucleation score was “inactive”.
With TSMSGYRTRNPMTVPHHCVV the amyloid nucleation score was “inactive”.
Work on GCVLCGIPSAWRSPGASSDA yielded an amyloid nucleation score of 1.05 ± 0.2.
In the case of YLVLKDTRYAYTLLRSMLSA, the amyloid nucleation score is reported as “inactive”.
In the case of KGTLGCNSSSHVLIAVCNAM, the amyloid nucleation score is reported as “inactive”.
In the case of SCGEYWPLLSFMNCWAP, the amyloid nucleation score is reported as “inactive”.
For FYMWFMRTGLTKYPNGAIKV, the amyloid nucleation score was “inactive”.
In the case of NVFLRNLA, the amyloid nucleation score is reported as “inactive”.
With TDSYICGNMLHKRALKSTSM the amyloid nucleation score was “inactive”.
In the case of QSTGCLYSYLLANVGKSSGK, the amyloid nucleation score is reported as “inactive”.
In the case of VVYYWSVRITAVQHYWHLYT, the amyloid nucleation score is reported as “inactive”.
In the case of VLYYCGFSITARKSEKLVWP, the amyloid nucleation score is reported as “inactive”.
For NCPSWGGFGIATSGQR, the amyloid nucleation score was “inactive”.
For PVEPI, the amyloid nucleation score was “inactive”.
With IAVERMIGLLPGSYF the amyloid nucleation score was “inactive”.
In the case of LRATNRGVMLNRFVSTMDKS, the amyloid nucleation score is reported as “inactive”.
With TYQST the amyloid nucleation score was “inactive”.
With DDLRYRNE the amyloid nucleation score was “inactive”.
In the case of PCGVEMLWFKG, the amyloid nucleation score is reported as “inactive”.
Work on VITLYVVGVYWGGNDIGDFM yielded an amyloid nucleation score of 0.976 ± 0.19.
For SHVHLDSSRKRHIDLTNALR, the amyloid nucleation score was “inactive”.
In the case of LSKNSEILIYAYVLETFSCS, the amyloid nucleation score is reported as “inactive”.
In the case of SWKGGLQTDDGSKGS, the amyloid nucleation score is reported as “inactive”.
Substance KWGIGMGPSHSGLISWGHNE has an amyloid nucleation score of -0.448 ± 1.8.
With FWWVKC the amyloid nucleation score was “inactive”.
With MFRHVWVTNEVLSCGYIVTG the amyloid nucleation score was “inactive”.
With IYRNKSTWWYWAWLVRNPML the amyloid nucleation score was “inactive”.
In the case of TCECCLMMVEFRALCHRWEL, the amyloid nucleation score is reported as “inactive”.
MVGFLDTFSRIAVRCSIDRW gave an amyloid nucleation score of -0.344 ± 1.
With KNLGLA the amyloid nucleation score was “inactive”.
With REEAVWQADFVYLTKSAILN the amyloid nucleation score was “inactive”.
In the case of FCFSYSYAYFCHIYGCGSNR, the amyloid nucleation score is reported as -0.281 ± 0.36.
In the case of NSIIGPTHHIVK, the amyloid nucleation score is reported as “inactive”.
For LRSKECIKMALKWLCKKYYW, the amyloid nucleation score was “inactive”.
In the case of KLRCNTIKGFCSHKTRMGRT, the amyloid nucleation score is reported as “inactive”.
In the case of PITMLE, the amyloid nucleation score is reported as “inactive”.
In the case of HGPRLLTSKVRFWRKTLRST, the amyloid nucleation score is reported as “inactive”.
Work on VFLGCYSSYIVIWDARAPG yielded an amyloid nucleation score of 1.96 ± 0.071.
With RVIKVGHMFKWSRAVGGGKT the amyloid nucleation score was -0.514 ± 1.7.
With CLWFISRQFDLYHRVMGNRS the amyloid nucleation score was “inactive”.
With NVRTLNSLDDLGVSFSSACT the amyloid nucleation score was “inactive”.
